# Measured values published in patent publication US20140378374A1, “METHODS OF TREATMENT” (GlaxoSmithKline Intellectual Property (No.2) Limited, priority 2013, published 2014).
# Where two headings read alike, the source gives them in different places.
# Columns and labels:
# [1] = in vivo, cited from earlier work
# [2] = Population pharmacokinetics, Phase 3 pooled analysis; format: in vivo, human
# Text: During each Phase 3 study, 4 blood samples for population pharmacokinetic evaluation were obtained. In the study of patients with CKD, 2 predose samples were obtained at weeks 8 and 16 and 2 postdose samples were obtained at least 2 days after dosing between weeks 8 and 10 and weeks 16 and 20. In the other 3 studies, 2 predose samples were obtained at weeks 8 and 24 and 2 postdose samples were obtained at least 2 days after dosing between weeks 8 and 10 and weeks 24 and 28. The blood collection and storage procedure were the same as described above.
# Plasma samples were analyzed for albiglutide by using a validated enzyme-linked immunosorbent assay (ELISA) and were diluted 100-fold with sample buffer before analysis. Albiglutide was captured using a rabbit anti-human GLP-1 (7-36) amide and detected using a rabbit anti-HSA conjugated to biotin. ELISA experiments were performed using the Furoninc® 96 well plate (Nunc, cat. #437796) with the following steps. […] The microtiter plate was washed 5 times with […] wash buffer (10 mM Sodium Phosphate, 150 mM NaCl, 0.05% Tween 20, pH 7.5) using plate washer; 2) […] blocking buffer of SuperBlock in PBS (SuperBlock (Pierce, cat. #37515) in PBS, 5.0% Rabbit Plasma) was added to each well, sealed and incubated with constant shaking for approximately 1.5 hour (±30 minutes) at ambient room temperature and the microtiter plate washed; 3) 100 mL of either standards, quality controls (QCs) or samples were added per well, sealed, incubated and washed; 4) 100 mL of Detection Antibody solution of Biotin Labelled Rabbit polyclonal to Human Serum Albumin (NOVUS Biologicals, cat. # NB 100-1674) was added per well, sealed, incubated and washed; 5) 100 mL of Reporter Tag solution (Streptavidin-HRPO Conjugate, Caltag, cat. # SA1007) was added per well, sealed, incubated and washed; 6) 100 mL of Development Substrate Pico (SuperSignal ELISA, Pierce, cat. #37070) was added, incubated and the plate read using plate reader (Wallac 1420 Victor Multilabel Counter, Perkin Elmer Life Sciences, Boston, Mass.). […]
# [3] = system: patients with type 2 diabetes; details: head-to-head trial; cited from earlier work
substance,measurement,setting,value
Albiglutide: recombinant fusion protein of 2 copies of modified human GLP-1 (fragment 7-36(A8G)) genetically fused in series to recombinant human serum albumin,half-life,[1],approximately 5 days
same,half-life,[1]; listed as SEQ ID NO:1,about 5 days
same,"apparent clearance CL/F, typical value of the final population PK model","[2]; BW 90.7, eGFR 77.9, covariates body weight, eGFR, African heritage, insulin",66.6 mL/h
same,decrease in clearance vs eGFR around 80 mL/min/1.73 m2,[2]; patient with eGFR of 50 mL/min/1.73 m2,about 9%
same,decrease in clearance vs eGFR around 80 mL/min/1.73 m2,[2]; typical patient with eGFR of 30 mL/min/1.73 m2,about 19%
same,"nausea, percentage",[3],10%
same,"vomiting, percentage",[3],5%
